Experiment [1] concerns the target T1, human COP1 β-propeller (376-731) (human, UniProt Q8NHY2 376-731). Kind of experiment: fluorescence polarisation. On the technique in general: In fluorescence polarisation assays a small probe gives low polarisation when free and higher when bound to something large.
The target in experiment [2] is T1, human COP1 β-propeller (376-731). Kind of experiment: fluorescence polarisation. This is another data set of the same source.

Where no end group is shown, it is not given here. The star is where a group is joined. FITC = O=C1OC2(c3ccc(O)cc3Oc3cc(O)ccc32)c2ccc(NC(=S)*)cc21

T1 sequence (Q8NHY2 376-731): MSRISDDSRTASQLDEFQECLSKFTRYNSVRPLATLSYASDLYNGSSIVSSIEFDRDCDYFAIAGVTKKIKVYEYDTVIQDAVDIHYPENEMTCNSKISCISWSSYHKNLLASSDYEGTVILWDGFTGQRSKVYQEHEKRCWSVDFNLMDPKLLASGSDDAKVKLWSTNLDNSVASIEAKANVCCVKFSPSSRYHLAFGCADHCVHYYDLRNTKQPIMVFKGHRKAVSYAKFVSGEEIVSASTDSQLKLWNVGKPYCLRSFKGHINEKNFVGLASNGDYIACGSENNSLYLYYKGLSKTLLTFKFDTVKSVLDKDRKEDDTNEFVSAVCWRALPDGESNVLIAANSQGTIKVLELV

Regarding {FITC}-SEIGTSDQIVPEYQEDSDI [FITC-SEIGTSDQIVPEYQEDSDI], the equilibrium dissociation constant (Kd) (commonly a measure of binding affinity in units of concentration) in experiment [1] was determined as 250 ± 40 nM.

B1: Trib1 molecule containing residues 83-372 (domain or fragment, human, UniProt Q96RU8 83-372, looked up)
chain: GSAPGPSRIADYLLLPLAEREHVSRALCIHTGRELRCKVFPIKHYQDKIRPYIQLPSHSNITGIVEVILGETKAYVFFEKDFGDMHSYVRSRKRLREEEAARLFKQIVSAVAHCHQSAIVLGDLKLRKFVFSTEERTQLRLESLEDTHIMKGEDDALSDKHGCPAYVSPEILNTTGTYSGKAADVWSLGVMLYTLLVGRYPFHDSDPSALFSKIRRGQFCIPEHISPKARCLIRSLLRREPSERLTAPEILLHPWFESVLEPGYIDSEIGTSDQIVPEYQEDSDISSFFC
Turning to B1, the binding result in experiment [2] is on record as “binds”.

Values taken from article PMC4856590 (Structure (London, England : 1993), 2016).
